Test results published in US20150299797A1, “COMPOSITIONS AND METHODS RELATING TO BLOOD-BASED BIOMARKERS OF BREAST CANCER” (UNIVERSITY OF UTAH RESEARCH FOUNDATION, priority 2012, published 2015).
“Also recorded” adds a separate entry of the source.

System: normal mammary epithelial cells from high-risk (HBC) women or control women
Assay: Drug response assay (CellTiter-Glo cell viability, dose-response)
Assay type: cell-based, human
Details: HBC/high-risk vs control, viability after 96 hours, TRAIL p-value<0.001
Method: Normal mammary epithelial cells isolated from either high-risk women undergoing prophylactic mastectomy or control women with no family history of breast cancer undergoing breast-reduction surgery for non-cancer related health issues were isolated, and single-cell suspensions were generated. 1500 cells/well for each patient samples were plated in 40 microliters of MEBM basal media supplemented with a MEGM Bulletkit [Lonza] in half-well 96-well plates [Nunc] in triplicate for each drug dose. After 24 hours, TRAIL, Afatinib, Gefitinib, and EGF were added. The indicated doses were chosen within the average linear range of drug effect: TRAIL (0.1 ng/mL-5.0 ng/ml), Afatinib (10 nM-[…]), Gefitinib (0.001 mM-0.5 mM), EGF (5 ng/mL-500 ng/mL) [Millipore (TRAIL) and Selleckchem]. A BIOMEK 3000 (Beckman Coulter, Brea, Calif., USA) robot was used to seed the cells and dispense the drugs. After 96 hours, cell viability was quantified using the CellTiter-Glo Luminescent Cell Viability Assay [Promega]. The proportion of viable cells was calculated for each dosage by comparing against cell counts for non-treated cells. A summary value was calculated for each cell line as the slope of a linear-regression line fitted to the cell-count proportions.

B1: TRAIL: TNF-related apoptosis inducing ligand (TRAIL), from Millipore (protein, UniProt P50591 1-281, looked up)
Tumor necrosis factor ligand …: MAMMEVQGGPSLGQTCVLIVIFTVLLQSLCVAVTYVYFTNELKQMQDKYSKSGIACFLKEDDSYWDPNDEESMNSPCWQVKWQLRQLVRKMILRTSEETISTVQEKQQNISPLVRERGPQRVAAHITGTRGRSNTLSSPNSKNEKALGRKINSWESSRSGHSFLSNLHLRNGELVIHEKGFYYIYSQTYFRFQEEIKENTKNDKQMVQYIYKYTSYPDPILLMKSARNSCWSKDAEYGLYSIYQGGIFELKENDRIFVSVTNEHLIDMDHEASFFGAFLVG
**Q.** Which “response of primary breast cells of HBC women compared to controls (proportion of viable cells, slope of fitted dose-response)” value does the source give for B1 here?
**A.** The value was “significantly increased response; also recorded: significantly more responsive”.
